Source: patent US20230406885A1, “CYCLIC PEPTIDES FOR TRAPPING INTERLEUKIN-1 BETA” (MERCK SHARP & DOHME LLC, priority 2022, published 2023)
*1 amine or outer side, *2 acyl side, *3 side chain or, on linkers, in order; H or OH if unused. [ ]: non-standard residue; d: D form. TyrEtNAc = L-tyrosine O-ethyl acetamide, (S)-3-(4-(2-acetamidoethoxy)phenyl)-2-aminopropanoic acid, CC(=O)NCCOc1ccc(C[C@H](N[*:1])C(=O)[*:2])cc1; 3AzaPhe4AcPip = (S)-3-(6-(4-acetylpiperazin-1-yl)pyridin-3-yl)-2-aminopropanoic acid, CC(=O)N1CCN(c2ccc(C[C@H](N[*:1])C(=O)[*:2])cn2)CC1; Pro(trans-4-NH2) = O=C([C@@H]1C[C@@H](N[*:3])CN1[*:1])[*:2]; Trp(βS-Me,4-F) = C[C@@H](c1c[nH]c2cccc(F)c12)[C@H](N)C(=O)O; Bip(4'-COOH) = N[C@@H](Cc1ccc(-c2ccc(C(=O)O)cc2)cc1)C(=O)O; hQ = L-homoglutamine, NC(=O)CCC[C@H](N[*:1])C(=O)[*:2]; 1Nal(3S-Me) = C[C@@H](c1cccc2ccccc12)[C@H](N)C(=O)O; Phe(4-COOH) = N[C@@H](Cc1ccc(C(=O)O)cc1)C(=O)O; h3Pal(5-CN) = N#Cc1cncc(CC[C@H](N)C(=O)O)c1; hTyr = N[C@@H](CCc1ccc(O)cc1)C(=O)O; hCha = N[C@@H](CCC1CCCCC1)C(=O)O; tBuAla = CC(C)(C)C[C@H](N)C(=O)O; dNle = CCCC[C@@H](N)C(=O)O; dOrn = NCCC[C@@H](N)C(=O)O; dNva = CCC[C@@H](N)C(=O)O; dNMeA = CN[C@H](C)C(=O)O; Dab = NCC[C@H](N)C(=O)O; Dap = NC[C@H](N)C(=O)O

B1: SEQ ID NO: 176 (Example No. 176) (peptide)
peptide: cyclo([3AzaPhe4AcPip]W[Phe(4-COOH)]G[Pro(trans-4-NH2)][1Nal(3S-Me)]D[dNMeA]G[Bip(4'-COOH)][hQ]L[dA][h3Pal(5-CN)])
SMILES: CC(=O)N1CCN(c2ccc(C[C@@H]3NC(=O)[C@H](CCc4cncc(C#N)c4)NC(=O)[C@@H](C)NC(=O)[C@H](CC(C)C)NC(=O)[C@H](CCCC(N)=O)NC(=O)[C@H](Cc4ccc(-c5ccc(C(=O)O)cc5)cc4)NC(=O)CNC(=O)[C@@H](C)N(C)C(=O)[C@H](CC(=O)O)NC(=O)[C@H]([C@@H](C)c4cccc5ccccc45)NC(=O)[C@@H]4C[C@@H](N)CN4C(=O)CNC(=O)[C@H](Cc4ccc(C(=O)O)cc4)NC(=O)[C@H](Cc4c[nH]c5ccccc45)NC3=O)cn2)CC1
B2: SEQ ID NO: 174 (Example No. 174) (peptide)
peptide: cyclo([3AzaPhe4AcPip]W[Phe(4-COOH)]G[Pro(trans-4-NH2)][1Nal(3S-Me)]D[dNMeA]G[Bip(4'-COOH)][Dab]L[dA][hCha])
SMILES: CC(=O)N1CCN(c2ccc(C[C@@H]3NC(=O)[C@H](CCC4CCCCC4)NC(=O)[C@@H](C)NC(=O)[C@H](CC(C)C)NC(=O)[C@H](CCN)NC(=O)[C@H](Cc4ccc(-c5ccc(C(=O)O)cc5)cc4)NC(=O)CNC(=O)[C@@H](C)N(C)C(=O)[C@H](CC(=O)O)NC(=O)[C@H]([C@@H](C)c4cccc5ccccc45)NC(=O)[C@@H]4C[C@@H](N)CN4C(=O)CNC(=O)[C@H](Cc4ccc(C(=O)O)cc4)NC(=O)[C@H](Cc4c[nH]c5ccccc45)NC3=O)cn2)CC1
B3: SEQ ID NO: 175 (Example No. 175) (peptide)
peptide: cyclo([3AzaPhe4AcPip]W[Phe(4-COOH)]G[Pro(trans-4-NH2)][1Nal(3S-Me)]D[dNMeA]G[Bip(4'-COOH)][Dap]L[dA][hCha])
SMILES: CC(=O)N1CCN(c2ccc(C[C@@H]3NC(=O)[C@H](CCC4CCCCC4)NC(=O)[C@@H](C)NC(=O)[C@H](CC(C)C)NC(=O)[C@H](CN)NC(=O)[C@H](Cc4ccc(-c5ccc(C(=O)O)cc5)cc4)NC(=O)CNC(=O)[C@@H](C)N(C)C(=O)[C@H](CC(=O)O)NC(=O)[C@H]([C@@H](C)c4cccc5ccccc45)NC(=O)[C@@H]4C[C@@H](N)CN4C(=O)CNC(=O)[C@H](Cc4ccc(C(=O)O)cc4)NC(=O)[C@H](Cc4c[nH]c5ccccc45)NC3=O)cn2)CC1
B4: SEQ ID NO: 178 (Example No. 178) (peptide)
peptide: cyclo([3AzaPhe4AcPip]W[Phe(4-COOH)]G[Pro(trans-4-NH2)][1Nal(3S-Me)]D[dNMeA]G[Bip(4'-COOH)]KL[dL][h3Pal(5-CN)])
SMILES: CC(=O)N1CCN(c2ccc(C[C@@H]3NC(=O)[C@H](CCc4cncc(C#N)c4)NC(=O)[C@@H](CC(C)C)NC(=O)[C@H](CC(C)C)NC(=O)[C@H](CCCCN)NC(=O)[C@H](Cc4ccc(-c5ccc(C(=O)O)cc5)cc4)NC(=O)CNC(=O)[C@@H](C)N(C)C(=O)[C@H](CC(=O)O)NC(=O)[C@H]([C@@H](C)c4cccc5ccccc45)NC(=O)[C@@H]4C[C@@H](N)CN4C(=O)CNC(=O)[C@H](Cc4ccc(C(=O)O)cc4)NC(=O)[C@H](Cc4c[nH]c5ccccc45)NC3=O)cn2)CC1
B5: SEQ ID NO: 179 (Example No. 179) (peptide)
peptide: cyclo([3AzaPhe4AcPip]W[Phe(4-COOH)]G[Pro(trans-4-NH2)][1Nal(3S-Me)]D[dNMeA]G[Bip(4'-COOH)]KL[dNle][h3Pal(5-CN)])
SMILES: CCCC[C@H]1NC(=O)[C@H](CC(C)C)NC(=O)[C@H](CCCCN)NC(=O)[C@H](Cc2ccc(-c3ccc(C(=O)O)cc3)cc2)NC(=O)CNC(=O)[C@@H](C)N(C)C(=O)[C@H](CC(=O)O)NC(=O)[C@H]([C@@H](C)c2cccc3ccccc23)NC(=O)[C@@H]2C[C@@H](N)CN2C(=O)CNC(=O)[C@H](Cc2ccc(C(=O)O)cc2)NC(=O)[C@H](Cc2c[nH]c3ccccc23)NC(=O)[C@H](Cc2ccc(N3CCN(C(C)=O)CC3)nc2)NC(=O)[C@H](CCc2cncc(C#N)c2)NC1=O
B6: SEQ ID NO: 177 (Example No. 177) (peptide)
peptide: cyclo([3AzaPhe4AcPip]W[Phe(4-COOH)]G[Pro(trans-4-NH2)][1Nal(3S-Me)]D[dNMeA]G[Bip(4'-COOH)]KL[dA][hCha])
SMILES: CC(=O)N1CCN(c2ccc(C[C@@H]3NC(=O)[C@H](CCC4CCCCC4)NC(=O)[C@@H](C)NC(=O)[C@H](CC(C)C)NC(=O)[C@H](CCCCN)NC(=O)[C@H](Cc4ccc(-c5ccc(C(=O)O)cc5)cc4)NC(=O)CNC(=O)[C@@H](C)N(C)C(=O)[C@H](CC(=O)O)NC(=O)[C@H]([C@@H](C)c4cccc5ccccc45)NC(=O)[C@@H]4C[C@@H](N)CN4C(=O)CNC(=O)[C@H](Cc4ccc(C(=O)O)cc4)NC(=O)[C@H](Cc4c[nH]c5ccccc45)NC3=O)cn2)CC1
B7: SEQ ID NO: 173 (Example No. 173) (peptide)
peptide: cyclo([TyrEtNAc]W[Phe(4-COOH)]G[Pro(trans-4-NH2)][Trp(βS-Me,4-F)]D[dNMeA]G[Bip(4'-COOH)]WS[dA][TyrEtNAc])
SMILES: CC(=O)NCCOc1ccc(C[C@@H]2NC(=O)[C@H](Cc3ccc(OCCNC(C)=O)cc3)NC(=O)[C@@H](C)NC(=O)[C@H](CO)NC(=O)[C@H](Cc3c[nH]c4ccccc34)NC(=O)[C@H](Cc3ccc(-c4ccc(C(=O)O)cc4)cc3)NC(=O)CNC(=O)[C@@H](C)N(C)C(=O)[C@H](CC(=O)O)NC(=O)[C@H]([C@@H](C)c3c[nH]c4cccc(F)c34)NC(=O)[C@@H]3C[C@@H](N)CN3C(=O)CNC(=O)[C@H](Cc3ccc(C(=O)O)cc3)NC(=O)[C@H](Cc3c[nH]c4ccccc34)NC2=O)cc1
B8: SEQ ID NO: 172 (Example No. 172) (peptide)
peptide: cyclo([TyrEtNAc]W[Phe(4-COOH)]G[Pro(trans-4-NH2)][Trp(βS-Me,4-F)]D[dNMeA]G[Bip(4'-COOH)]WS[dA][hTyr])
SMILES: CC(=O)NCCOc1ccc(C[C@@H]2NC(=O)[C@H](CCc3ccc(O)cc3)NC(=O)[C@@H](C)NC(=O)[C@H](CO)NC(=O)[C@H](Cc3c[nH]c4ccccc34)NC(=O)[C@H](Cc3ccc(-c4ccc(C(=O)O)cc4)cc3)NC(=O)CNC(=O)[C@@H](C)N(C)C(=O)[C@H](CC(=O)O)NC(=O)[C@H]([C@@H](C)c3c[nH]c4cccc(F)c34)NC(=O)[C@@H]3C[C@@H](N)CN3C(=O)CNC(=O)[C@H](Cc3ccc(C(=O)O)cc3)NC(=O)[C@H](Cc3c[nH]c4ccccc34)NC2=O)cc1
B9: SEQ ID NO: 181 (Example No. 181) (peptide)
peptide: cyclo([3AzaPhe4AcPip]W[Phe(4-COOH)]G[Pro(trans-4-NH2)][1Nal(3S-Me)]D[dNMeA]G[Bip(4'-COOH)]K[tBuAla][dA][h3Pal(5-CN)])
SMILES: CC(=O)N1CCN(c2ccc(C[C@@H]3NC(=O)[C@H](CCc4cncc(C#N)c4)NC(=O)[C@@H](C)NC(=O)[C@H](CC(C)(C)C)NC(=O)[C@H](CCCCN)NC(=O)[C@H](Cc4ccc(-c5ccc(C(=O)O)cc5)cc4)NC(=O)CNC(=O)[C@@H](C)N(C)C(=O)[C@H](CC(=O)O)NC(=O)[C@H]([C@@H](C)c4cccc5ccccc45)NC(=O)[C@@H]4C[C@@H](N)CN4C(=O)CNC(=O)[C@H](Cc4ccc(C(=O)O)cc4)NC(=O)[C@H](Cc4c[nH]c5ccccc45)NC3=O)cn2)CC1
B10: SEQ ID NO: 180 (Example No. 180) (peptide)
peptide: cyclo([3AzaPhe4AcPip]W[Phe(4-COOH)]G[Pro(trans-4-NH2)][1Nal(3S-Me)]D[dNMeA]G[Bip(4'-COOH)]KL[dNva][h3Pal(5-CN)])
SMILES: CCC[C@H]1NC(=O)[C@H](CC(C)C)NC(=O)[C@H](CCCCN)NC(=O)[C@H](Cc2ccc(-c3ccc(C(=O)O)cc3)cc2)NC(=O)CNC(=O)[C@@H](C)N(C)C(=O)[C@H](CC(=O)O)NC(=O)[C@H]([C@@H](C)c2cccc3ccccc23)NC(=O)[C@@H]2C[C@@H](N)CN2C(=O)CNC(=O)[C@H](Cc2ccc(C(=O)O)cc2)NC(=O)[C@H](Cc2c[nH]c3ccccc23)NC(=O)[C@H](Cc2ccc(N3CCN(C(C)=O)CC3)nc2)NC(=O)[C@H](CCc2cncc(C#N)c2)NC1=O
B11: SEQ ID NO: 171 (Example No. 171) (peptide)
peptide: cyclo([TyrEtNAc]W[Phe(4-COOH)]G[Pro(trans-4-NH2)][Trp(βS-Me,4-F)]D[dNMeA]G[Bip(4'-COOH)]WL[dS][hTyr])
SMILES: CC(=O)NCCOc1ccc(C[C@@H]2NC(=O)[C@H](CCc3ccc(O)cc3)NC(=O)[C@@H](CO)NC(=O)[C@H](CC(C)C)NC(=O)[C@H](Cc3c[nH]c4ccccc34)NC(=O)[C@H](Cc3ccc(-c4ccc(C(=O)O)cc4)cc3)NC(=O)CNC(=O)[C@@H](C)N(C)C(=O)[C@H](CC(=O)O)NC(=O)[C@H]([C@@H](C)c3c[nH]c4cccc(F)c34)NC(=O)[C@@H]3C[C@@H](N)CN3C(=O)CNC(=O)[C@H](Cc3ccc(C(=O)O)cc3)NC(=O)[C@H](Cc3c[nH]c4ccccc34)NC2=O)cc1
B12: SEQ ID NO: 170 (Example No. 170) (peptide)
peptide: cyclo([TyrEtNAc]W[Phe(4-COOH)]G[Pro(trans-4-NH2)][Trp(βS-Me,4-F)]D[dNMeA]G[Bip(4'-COOH)]WL[dOrn][hTyr])
SMILES: CC(=O)NCCOc1ccc(C[C@@H]2NC(=O)[C@H](CCc3ccc(O)cc3)NC(=O)[C@@H](CCCN)NC(=O)[C@H](CC(C)C)NC(=O)[C@H](Cc3c[nH]c4ccccc34)NC(=O)[C@H](Cc3ccc(-c4ccc(C(=O)O)cc4)cc3)NC(=O)CNC(=O)[C@@H](C)N(C)C(=O)[C@H](CC(=O)O)NC(=O)[C@H]([C@@H](C)c3c[nH]c4cccc(F)c34)NC(=O)[C@@H]3C[C@@H](N)CN3C(=O)CNC(=O)[C@H](Cc3ccc(C(=O)O)cc3)NC(=O)[C@H](Cc3c[nH]c4ccccc34)NC2=O)cc1

Molecular target: Recombinant human IL-1β (BioLegend 579404) (human, UniProt P01584 117-269)
Assay: cell-based or functional assay

Question: For B1, which “MRC5 IC50” value is on record?
Answer: Its value is 0.017 nM.

Question: For B2, which “MRC5 IC50” value is on record?
Answer: The value was 0.015 nM.

Question: B3 was tested. Which “MRC5 IC50” value did it give?
Answer: The value was 0.016 nM.

Question: How did the “MRC5 IC50” value turn out when B4 was run?
Answer: Its value is 0.019 nM.

Question: B5 was tested. Which “MRC5 IC50” value did it give?
Answer: Its value is 0.017 nM.

Question: With B6 as the binder, how does the “MRC5 IC50” value read?
Answer: Its value is 0.013 nM.

Question: How did the “MRC5 IC50” value turn out when B7 was run?
Answer: The value was 0.959 nM.

Question: Which “MRC5 IC50” value does the source give for B8 here?
Answer: The value was 0.246 nM.

Question: Which “MRC5 IC50” value does the source give for B9 here?
Answer: Its value is 0.015 nM.

Question: With B10 as the binder, how does the “MRC5 IC50” value read?
Answer: The value was 0.021 nM.

Question: With B11 as the binder, how does the “MRC5 IC50” value read?
Answer: The value was 0.145 nM.

Question: Which “MRC5 IC50” value does the source give for B12 here?
Answer: The value was 0.0966 nM.
